Measurements taken from article PMC4114688.
Like-named read-outs stand apart in the source and are kept apart here.

How the values were obtained:
Test in all cases: EMSA
RBPMS2 [1] = target: T1, RBPMS2 (UniProt Q6ZRY4 1-209)
RBPMS isoform A [2] = target: T2, RBPMS isoform A (Homo sapiens, UniProt Q93062 1-196)
RBPMS2 [3] = target: T1, RBPMS2; remark: listed apart in the source
RBPMS 1-100 = RBPMS 1-100 (Homo sapiens, UniProt Q93062 1-100)
RBPMS 1-144 = RBPMS 1-144 (Homo sapiens, UniProt Q93062 1-144)
RBPMS isoform A [4] = target: T2, RBPMS isoform A; remark: listed apart in the source
RBPMS isoform A [5] = target: T2, RBPMS isoform A; remark: listed apart in the source

T1 sequence (Q6ZRY4 whole entry, canonical isoform): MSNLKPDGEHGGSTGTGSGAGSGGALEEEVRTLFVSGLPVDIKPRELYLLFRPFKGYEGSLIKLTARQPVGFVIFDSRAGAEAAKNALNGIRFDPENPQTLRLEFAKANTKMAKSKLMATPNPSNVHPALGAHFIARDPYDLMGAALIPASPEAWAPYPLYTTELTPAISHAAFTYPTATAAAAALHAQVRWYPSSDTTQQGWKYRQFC

| Binder | binding result (RBPMS2 [1]) | binding result (RBPMS isoform A [2]) | also measured |
| --- | --- | --- | --- |
| CACCACCACCACCACCAC (ssRNA) [(CAC)6] | binds | binds | – |
| UACUCACUCACUCUCCACGAG (ssRNA) [UBE2V1 or SRM 21-nt wt (a)] | – | binds | – |
| GGCGGCGGCGGCGGCGGC (ssRNA) [(GGC)6] | – | no binding | – |
| AGGCACUUUCAACUUCACUCC (ssRNA) [ETF1 21-nt wt] | – | binds | binding result (RBPMS2 [3]): binds |
| AAAAAAAAAAAAAAAAAA (ssRNA) [A18] | – | no binding | – |
| CCCUCACUCACCAAACACGUG (ssRNA) [UBE2V1 or SRM 21-nt wt (b)] | – | binds | – |
| ACACACACACACACACAC (ssRNA) [(AC)9] | binds | – | binding result (RBPMS 1-100): no binding; binding result (RBPMS 1-144): binds; binding result (RBPMS isoform A [4]): binds |
| GCCGCCGCCGCCGCCGCC (ssRNA) [(GCC)6] | – | no binding | – |
| UUUUUUUUUUUUUUUUUU (ssRNA) [U18] | – | no binding | – |
| AGAGAGAGAGAGAGAGAG (ssRNA) [(AG)9] | – | no binding | – |
| ACACACACACACAC (ssRNA) [(AC)7] | – | – | binding result (RBPMS isoform A [5]): binds |
| CAUCAUCAUCAUCAUCAU (ssRNA) [(CAU)6] | no binding | no binding | – |
| CUCUCUCUCUCUCUCUCU (ssRNA) [(CU)9] | no binding | no binding | – |
